Data reported in paper PMC2225174 (Acta Crystallographica Section F, 2006).

Molecular target: T1, SsoPCNA1 (Sulfolobus solfataricus, UniProt P57766 1-249)
T1 sequence (looked up): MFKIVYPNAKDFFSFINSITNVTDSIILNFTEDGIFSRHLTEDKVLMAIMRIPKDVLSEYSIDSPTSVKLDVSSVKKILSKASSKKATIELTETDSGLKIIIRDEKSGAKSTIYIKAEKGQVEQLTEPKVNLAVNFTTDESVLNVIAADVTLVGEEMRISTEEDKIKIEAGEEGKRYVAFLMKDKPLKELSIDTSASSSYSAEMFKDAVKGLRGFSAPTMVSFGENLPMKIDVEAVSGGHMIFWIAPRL
Experiment: crystal structure

B1: SsoPCNA2 (natural protein, Sulfolobus solfataricus, UniProt Q97Z84 1-245, looked up)
chain: MKAKVIDAVSFSYILRTVGDFLSEANFIVTKEGIRVSGIDPSRVVFLDIFLPSSYFEGFEVSQEKEIIGFKLEDVNDILKRVLKDDTLILSSNESKLTLTFDGEFTRSFELPLIQVESTQPPSVNLEFPFKAQLLTITFADIIDELSDLGEVLNIHSKENKLYFEVIGDLSTAKVELSTDNGTLLEASGADVSSSYGMEYVANTTKMRRASDSMELYFGSQIPLKLRFKLPQEGYGDFYIAPRAD
B1: binds.
